# Test results taken from the nanobody polyreactivity screen of Harvey et al. (2022).
# Assay: yeast display, Sf9 membrane polyspecificity reagent, FACS + sequencing; frameworks hold sequencing errors
# Procedure, shortened: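 Galactose-induced (36–48 hours) yeast carrying a synthetic nanobody display library were exposed to 10% biotinylated, detergent-solubilized Sf9 membrane reagent at 4 °C for 1 hour. FACS followed streptavidin microbead enrichment, using low and high (top ~1%) gates for expression (anti-HA) and reagent binding (streptavidin). Colony PCR, MiSeq 2 × 250 sequencing and CDR-length filtering followed. Labels for polyreactivity reflect the gate of origin.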
row,Sequence,polyreactivity (PSR sort gate)
1,QVQLVESGGGLVQAGGSLRLSCAASGRIFGPNDMGWYRQAPGKERELVAAITDSGDITYYADSVKGRFTISRDIAKNSVYLQMNSLKPEDTAVYYCAADHTYENEYWGQGTQVTVSS,low polyreactivity
2,QVQFVESGGGLVKAGGSLRLSCAASGYTFGRYAMGWYRQAPGKERELVAAITKSGGPTSYADSVKGRFTISRDNAKNTVYLQMNSLKPEDTAVYYCNKVLFQPYWVVYATGDYWGQGTQVTVSS,high polyreactivity
3,QVQLVESGGGLVQAGGSLRLSCAASGSTFQSYAMGWYTQAPGKERELVAAISARGGTTYYADSVKGRFTISRDNAKNTVYLQMNSLKPEDTAVYYCAAEWDTNFWYDYWGQGTQVTVSS,low polyreactivity
4,QVQLVESGGGLVQAGGSLRLSCAASGRIFPGKAMGWYRQAPGKEREFVASINWSRGSTFYADSVKGRFTISRDNAKNTVYLQMNRLIPEDTAVYYCSARTFGYYRSRSYNYWGQGTQVTVSS,high polyreactivity
5,QAQRVESGGGLGQAGGSLRLSCAASGRTFVRYTMGWYRQAPGKERELVAAISRSGGSTYYADSVKRRYTISRANAKNTVYLQLNSLKPEDTAVYYCAARRNAYHRDYYWGQGTQVTVSS,high polyreactivity
6,QVPLVESGGGLVQAGGILRLSCAASGRTFRYNVMGCYRQAPGKERELVASISRISGSTYYADSVKGRFTISRDNAKNTVYLQMNSLKPEDTAVYYCAATVKLKHYPYVGFGYWGQGTQVTVSS,high polyreactivity
7,QVKLVESGGGLFQAGGSLRLSCAASVSIFYGNAIVWYRQAPGKERELVAAISSRGTRTYYADSVKGRFTISRDNAKNTVYLQMNSLNPEATAVYYCAAADYRFYNGPYSRRWLYGYWGQGTQVTVSS,high polyreactivity
8,QVQLVESGGGLVQAGGSLRLSCAASGFIFTPYTMGWYRQAPGKERELVAAITDGSSTYYADSVKGRFTISRDNAKNTVYLQMNSLKPEDTAVYYCAAVPRYQYGYWGQGTQVTVSS,low polyreactivity
9,QVQLVESGGGLVQAGGSLRLSCAASGSTFGNNTMGWNRQSPGKEREFVAAITESGGGTYADSVKGRFTISRDNAKNTVYLQLNSLKPEDTAVYYCAAVWYIWPFAFYDWAQGTQVTVSS,high polyreactivity
10,QVQLVESGGGLVQAGGSLSLSCAASGFTVYGYAMGWYRQAPGKERELVAAISRRSSSTYYADSVKGRFTISRDNAKNTVYLQMNSLKPEDTAVYYCNTVFQRTGYAAGVDYWGQGTQVTVSS,high polyreactivity
11,QVQLVESGGGLVQAGGSLRLSCAASGSIFAGNAMGWYRQAPAKERELVAAISRRGGSTYYADSVKGRFTISRDNAKNTVYLQMNSLKPEDTAVSYCNALLRYAYHAAYGYWGQGTQVTVSS,high polyreactivity
12,QVQLVESVGGLVQAGGSLRLSSAASGRILGYYAMGWYRQAPGKERELVAAISRACSTNYADSVKGRFTISRDNAKNTVYLQMNSLKPEDTAVYYCAARPYRRGYNYWGQGSQVTVSS,high polyreactivity
13,QVQLVESGGGLVQAGGSLRLSCAASGYIFVIYAMGRYRQAPGKERELVAAITDGGDNTYYADSVKGRFTISRDNAKNTVYLHMNSLKPEDTAVYYCAADVYLPIAAWEGSLEYYYWGQGTQVTVSS,high polyreactivity
14,QVQLVESGGGLVQAGGSLRLRCAASGSIFPYNAMGWYRQAPGKERELVAAISKRGRSTYYADSVKGRFTISRDNAKNTVYLHMNSLKPEDTAVYYSAARYPPYRSWYSYDYWGQGTQVTVSS,low polyreactivity
15,QVQLVESGGGLVQAGGSLRLSCAASGFTFYIYAMGWYRQAPGKERELVAGIDYSGGSTYYADSVKGRFTISRDNAKNTVYLQMNSLKPEDTAVYYCARYGPYQSSYHYDYWGQGTQVTVSS,high polyreactivity
16,QVQLVESGGGLVQAGGSLRLRCAASGSISWLYSMGCYSQAPGKERELVAAISWGGGDTYYADSVKGRFTISRDNAKNTVYLQMHSLKPEDTEVFYCAADSDYYWLAYDYWGQGTQVTLSS,low polyreactivity
17,QVQLVESGGGLVQAGGSLRLSCAASGRIFWYYAMVWYRQAPGKERELVATISSRSGSTYYADSVKGRFTISRDNAKNTVYLQMNSLKPEDTAVYYCAAGTPYYLGYRHNYWGQGTQVTVSS,high polyreactivity
